# Assay results from patent US7737158B2, “Processes for regulating blood glucose in a mammal” (Washington University, priority 2005, dated 2010).
# Entries after “also recorded” stand apart in the source; their conditions may differ.
# B1: Nmnat: Bacterially produced, His-tagged recombinant mouse nicotinamide/nicotinic acid mononucleotide adenylyltransferase (protein, UniProt Q9EPA7 1-285, looked up)
# Nicotinamide/nicotinic acid …: MDSSKKTEVVLLACGSFNPITNMHLRLFELAKDYMHATGKYSVIKGIISPVGDAYKKKGLIPAHHRIIMAELATKNSHWVEVDTWESLQKEWVETVKVLRYHQEKLATGSCSYPQSSPALEKPGRKRKWADQKQDSSPQKPQEPKPTGVPKVKLLCGADLLESFSVPNLWKMEDITQIVANFGLICITRAGSDAQKFIYESDVLWRHQSNIHLVNEWITNDISSTKIRRALRRGQSIRYLVPDLVQEYIEKHELYNTESEGRNAGVTLAPLQRNAAEAKHNHSTL
# modifications: His tag
# notes: Bacterially produced, His-tagged recombinant mouse nicotinamide/nicotinic acid mononucleotide adenylyltransferase
# B2: intracellular Nampt-FLAG® from NIH3T3 cells: FLAG-tagged mouse Nampt immunoprecipitated from NIH3T3 cellular extracts (protein, UniProt Q99KQ4 1-491, looked up)
# Nicotinamide …: MNAAAEAEFNILLATDSYKVTHYKQYPPNTSKVYSYFECREKKTENSKVRKVKYEETVFYGLQYILNKYLKGKVVTKEKIQEAKEVYREHFQDDVFNERGWNYILEKYDGHLPIEVKAVPEGSVIPRGNVLFTVENTDPECYWLTNWIETILVQSWYPITVATNSREQKKILAKYLLETSGNLDGLEYKLHDFGYRGVSSQETAGIGASAHLVNFKGTDTVAGIALIKKYYGTKDPVPGYSVPAAEHSTITAWGKDHEKDAFEHIVTQFSSVPVSVVSDSYDIYNACEKIWGEDLRHLIVSRSTEAPLIIRPDSGNPLDTVLKVLDILGKKFPVTENSKGYKLLPPYLRVIQGDGVDINTLQEIVEGMKQKKWSIENVSFGSGGALLQKLTRDLLNCSFKCSYVVTNGLGVNVFKDPVADPNKRSKKGRLSLHRTPAGNFVTLEEGKGDLEEYGHDLLHTVFKNGKVTKSYSFDEVRKNAQLNIEQDVAPH
# modifications: FLAG tag
# notes: FLAG-tagged mouse Nampt immunoprecipitated from NIH3T3 cellular extracts
# B3: extracellular Nampt: Extracellular Nampt from HIB-1B culture supernatants (protein)
# chain: B2 Nicotinamide …
# B4: intracellular Nampt-FLAG® from differentiated HIB-1B cells: FLAG-tagged mouse Nampt immunoprecipitated from differentiated HIB-1B cellular extracts (protein, UniProt Q99KQ4 1-491, looked up)
# Nicotinamide …: B2 Nicotinamide …
# modifications: FLAG tag
# notes: FLAG-tagged mouse Nampt immunoprecipitated from differentiated HIB-1B cellular extracts
# B5: extracellular Nampt-FLAG®: C-terminally FLAG-tagged mouse Nampt (SEQ ID NO:7) secreted from differentiated HIB-1B cells, immunoprecipitated from culture supernatants (protein)
# chain: MNAAAEAEFNILLATDSYKVTHYKQYPPNTSKVYSYFECREKKTENSKVRKVKYEETVFYGLQYILNKYLKGKVVTKEKIQEAKEVYREHFQDDVFNERGWNYILEKYDGHLPIEVKAVPEGSVIPRGNVLFTVENTDPECYWLTNWIETILVQSWYPITVATNSREQKKILAKYLLETSGNLDGLEYKLHDFGYRGVSSQETAGIGASAHLVNFKGTDTVAGIALIKKYYGTKDPVPGYSVPAAEHSTITAWGKDHEKDAFEHIVTQFSSVPVSVVSDSYDIYNACEKIWGEDLRHLIVSRSTEAPLIIRPDSGNPLDTVLKVLDILGKKFPVTENSKGYKLLPPYLRVIQGDGVDINTLQEIVEGMKQKKWSIENVSFGSGGALLQKLTRDLLNCSFKCSYVVTNGLGVNVFKDPVADPNKRSKKGRLSLHRTPAGNFVTLEEGKGDLEEYGHDLLHTVFKNGKVTKSYSFDEVRKNAQLNIEQDVAPHGGDYKDDDDK
# modifications: C-terminal FLAG tag; Nampt-FLAG (tm) protein
# Experiments:
# mouse Nmnat = target: T1, mouse Nmnat (Mus musculus, UniProt Q9EPA7); assay: Enzyme-coupled fluorometric assay, kinetic characterization of recombinant Nmnat; format: biochemical
# T1 construct: Polyclonal rabbit antisera were produced against the purified full-length His-tagged Nampt and Nmnat recombinant proteins; made in house; host or cells: E. coli BL21(DE3)pLysS
# Procedure: Enzymatic activities of recombinant Nampt and Nmnat proteins were measured by an enzyme-coupled fluorometric assay (see, e.g., FIG. 4B). In this enzyme-coupled reaction, NAD is converted to NADH by alcohol dehydrogenase, and the fluorescence of NADH is detected in a fluorometer. To establish this assay system, optimal reaction conditions for Nmnat were initially examined by varying ATP and Mg^2+ concentrations and pH of the reaction buffer. The resultant reaction buffer for Nmnat contained 50 mM HEPES [pH 7.4], 0.02% BSA, 12 mM MgCl2, 2 mM ATP, 1.5% ethanol, and 30 μg/ml alcohol dehydrogenase to convert NAD to NADH. To determine the kinetic parameters for Nmnat, 30 ng of purified His-tagged Nmnat and varying concentrations of NMN were added to 1 ml of the reaction buffer. The reactions were run at 37° C. and quenched at six time points by the addition of 250 μl of 0.5 M EDTA. The production of NADH was measured by excitation at 340 nm and emission at 460 nm in a fluorometer. For kinetic characterization of Nampt, 500 ng of His-tagged Nampt and varying concentrations of nicotinamide were reacted at 37° C. in 100 μl of a buffer containing 50 mM Tris-HCl [pH 7.5], 0.02% BSA, 12 mM MgCl2, 2.5 mM ATP, 10 μg/ml His-tagged Nmnat, 0.4 mM phosphoribosyl pyrophosphate (PRPP), 1.5% ethanol, and 30 μg/ml alcohol dehydrogenase. NADH production was measured continuously in a fluorometer.
# By using this enzyme-coupled fluorometric assay, kinetic parameters of purified recombinant mouse Nampt and Nmnat for nicotinamide and NMN, respectively, were determined (see, e.g., Table 1). The Lineweaver-Burk plots for these two enzymes are shown, for example, in FIGS. 11A and 11B. […] The Km and Vmax of mouse Nmnat are consistent with previously reported values for human NMNAT-1 (Emanuelli et al., J. Biol. Chem. (2001) 276, 406-412).
# mouse Nampt = mouse Nampt (Mus musculus, UniProt Q99KQ4); assay: Enzyme-coupled fluorometric assay of immunoprecipitated Nampt-FLAG and recombinant Nampt; format: biochemical; parameters: expressed in transfected cells; host or cells: mouse NIH3T3 fibroblasts and mouse HIB-1B preadipocytes (differentiated), stably transfected with pCXN2-Nampt-FLAG; cell extracts or culture supernatant, anti-FLAG immunoprecipitates; conditions: for kcat: NMN synthesis, 55 min at 37° C., pH8.5, Nampt amount quantified by Western blotting
# Procedure: For immunoprecipitation of intracellular Nampt, whole cell extracts were prepared with ice-cold immunoprecipitation (IP) buffer (phosphate buffer saline [pH 7.4], 0.5% NP-40, 1 mM EDTA,1 mM NaF, 10 μM Trichostatin A, 10 mM nicotinamide, 0.5 mM DTT, protease inhibitor cocktail (Roche)) and mixed with agarose beads conjugated with the mouse monoclonal M2 anti-FLAG antibody (F2426, Sigma) for 3-4 hours at 4° C. For immunoprecipitation of extracellular Nampt, HIB-1B culture supernatants were collected after incubating differentiated HIB-1B cells overnight with DMEM without fetal bovine serum but supplemented with 1 μg/ml insulin and 1 nM triodothyronine, filtered through a 0.22-μm PES membrane, concentrated with Amicon Ultra-15 columns (Millipore, MA), and mixed with anti-FLAG beads for 3-4 hours at 4° C. Immunoprecipitates were washed twice with the IP buffer and twice with PBS.
# Immunoprecipitates on anti-FLAG beads were incubated in enzymatic reaction buffer (50 mM Tris-HCl (pH8.5), 100 mM NaCl, 0.25 mM Nicotinamide, 10 mM MgSO4, 1.5% Ethanol, 0.5 mM PRPP, 2.0 mM ATP) for 55 min at 37° C. After this reaction, mouse recombinant nicotinamide mononucleotide adenylyltransferase and yeast alcohol dehydrogenase (Sigma) were added at 10 μg/ml as the final concentration for each, and the mixture was incubated for 5 min at 37° C. Supernatants were then collected by spinning down anti-FLAG beads, and autofluorescence of NADH was measured in a Perkin Elmer LS 50B fluorometer (excitation: 340 nm; emission: 460 nm). Immunoprecipitates bound on anti-FLAG beads were extracted with Laemmli's sample buffer, boiled for 5 minutes, and analyzed by Western blotting with anti-Nampt antibodies. The amounts of Nampt used for enzymatic reactions were quantitated compared to the standards of mouse recombinant Nampt.
# The immunoprecipitates from the HIB-1B culture supernatants were subjected to enzyme-coupled fluorometric assays (see Revollo et al., J. Biol. Chem., (2004)279, 50754-50763) to compare enzymatic activity of the intracellular and extracellular forms of Nampt. […] The Nampt enzymatic activity of the bacterially produced recombinant Nampt and the intracellular Nampt-FLAG® immunoprecipitated from HIB-1B and NIH3T3 cellular extracts were also measured and their kcat values calculated (see FIG. 16E). […] It is believed that a post-translational modification may be responsible for the altered enzymatic activity of extracellular Nampt produced by brown adipocytes. […] Despite the extensive mass spectrometric analysis of extracellular Nampt, the precise nature of the modification is currently unknown. Taken together, these findings provide strong evidence that Nampt functions as an NAD biosynthetic enzyme both intra- and extracellularly.
# [1] = purified His-tagged recombinant mouse Nmnat, substrate NMN
molecule,measurement,setting,value
B1,synthesis of NAD from NMN and ATP,mouse Nmnat; isolated reactions,catalyzed the synthesis of NAD
same,Vmax,mouse Nmnat; [1],31.4 µmol/min/mg
same,kcat,mouse Nmnat; [1],20.0 s⁻¹
same,Km,"mouse Nmnat; purified His-tagged recombinant mouse Nmnat, substrate NMN, 37° C.",20.1 µM
B2,kcat,mouse Nampt,0.082 s⁻¹
B3,enzymatic activity after treatment with calf intestinal phosphatase (CIP),mouse Nampt; extracellular Nampt from HIB-1B culture supernatants,did not change
B4,kcat,mouse Nampt,0.182 s⁻¹
B5,kcat,mouse Nampt,0.380 s⁻¹
same,Nampt enzymatic activity,mouse Nampt; immunoprecipitated from culture supernatants of differentiated HIB-1B cells,Robust activity; also recorded: has Nampt enzymatic activity
same,"kcat of extracellular Nampt-FLAG, fold higher than recombinant Nampt",mouse Nampt; versus bacterially produced recombinant Nampt,~11 fold
same,"kcat of extracellular Nampt-FLAG, fold higher than intracellular Nampt-FLAG from NIH3T3 cells",mouse Nampt; versus intracellular Nampt-FLAG from NIH3T3 cells,~5 fold
same,"kcat of extracellular Nampt-FLAG, fold higher than intracellular Nampt-FLAG from differentiated HIB-1B cells",mouse Nampt; versus intracellular Nampt-FLAG from differentiated HIB-1B cells,~2 fold
